Measured values taken from EP4703474A1, “ANTI-LRRC15 ANTIBODY” (priority 2023, dated 2024).

What was measured:
LRRC15-negative HEK293α = test: In vitro cell growth inhibitory activity (CellTiter-Glo 2.0), negative control cells; assay type: cell-based; details: 0.0002 to 1.5 µg/mL, 6 days of culture, compared to control hIgG-PBD
Experimental: (§1) LRRC15-positive human osteosarcoma cell line HuO9 (JCRB) was seeded in 10% FBS-containing RPMI medium at 5 x 10^3 cells/50 μL/well, LRRC15-positive human melanoma cell line Hs294T was seeded in 10% FBS and 20 ng/mL TGFβ1-containing RPMI medium at 5 x 10^3 cells/50 μL/well, or, as a negative control, LRRC15-negative HEK293α was seeded in 10% FBS-containing RPMI medium at 2 x 10^3 cells/50 μL/well in a 96-well plate, and cultured overnight under conditions of 37°C and 5% CO2. The next day, the three types of hR024-drug conjugates (clone names of […]-PBD, […]-V1-PBD, and […]-V2-PBD) prepared in Example 5 and the control hIgG-PBD were diluted at a common ratio of 3 to a final concentration of 0.0002 (μg/mL) from 1.5 (μg/mL) and added. After 6 days of culture, the number of viable cells was measured by quantification of ATP using CellTiter-Glo 2.0 Assay (Promega).

[1] = system: LRRC15-positive human osteosarcoma cell line HuO9; test: In vitro cell growth inhibitory activity (CellTiter-Glo 2.0); assay type: cell-based; details: 0.0002 to 1.5 µg/mL, 6 days of culture, compared to control hIgG-PBD
Experimental: as §1

[2] = system: LRRC15-positive human melanoma cell line Hs294T; test: as above; assay type: cell-based; details: 20 ng/mL TGFβ1-containing medium, 0.0002 to 1.5 µg/mL, 6 days of culture, compared to control hIgG-PBD
Experimental: as §1

[3] = system: LRRC15-positive human osteosarcoma cell line HuO9; test: In vivo antitumor effect, HuO9 subcutaneous transplant model; details: tail vein, on Day 10, female SCID mice
Experimental: The antitumor effects of the antibody-drug conjugates were evaluated by using animal models in which cells of the human tumor cell line had been transplanted into immunodeficient mice. 4 to 6 Week-old SCID mice (CB17/Icr-Prkdc[scid]/CrlCrlj, Jackson Laboratory Japan, Inc.) were habituated for 3 days or more under SPF conditions before experimental use. The mice were fed with sterilized solid feed (FR-2, Funabashi Farms Co., Ltd.) and given sterilized tap water (prepared by adding a solution of 5 to 15 ppm sodium hypochlorite). The major and minor diameters of the transplanted tumors were measured twice a week with an electronic digital caliper ([…] Corporation), and the estimated tumor volume was calculated using the following formula. Estimated tumor volume (mm^3) = 1/2 × major diameter (mm) × [minor diameter (mm)]^2 All antibody-drug conjugates were diluted with ABS and administered into the tail vein at doses shown in each Example. In addition, ABS (vehicle) or control hIgG-PBD prepared in Reference Example 4 was administered as the control group, in a similar manner. 5 to 6 Mice were used per group in the experiment. Based on publicly known information, LRRC15-positive human osteosarcoma cell line HuO9 (JCRB) was suspended in Matrigel (Corning Incorporated), 5.0 × 10^6 cells were subcutaneously transplanted into the right flank of female SCID mice (Day 0), and random grouping was performed on Day 10. On the day of grouping, the vehicle, the antibody-drug conjugates […]-PBD, […]-V1-PBD, and […]-V2-PBD prepared in Example 5, or the control hIgG-PBD prepared in Reference Example 4 was administered at a dose of 0.4 mg/kg, and the huM25-MMAE prepared in Reference Example 5 was administered at a dose of 0.4 mg/kg or 3.6 mg/kg into the tail vein. The abscissa indicates the number of days, and the ordinate indicates estimated tumor volume, and the error bars indicate SEM values. […] The antitumor effects of the antibody-drug conjugates were evaluated by using animal models in which cells of a human tumor cell line had been transplanted into immunodeficient mice, or cells of a mouse tumor cell line had been transplanted into immunocompetent mice. 4 to 6 Week-old SCID mice (CB17/Icr-Prkdc[scid]/CrlCrlj, Jackson Laboratory Japan, Inc.), NSG mice (NOD.Cg-Prkdcscid Il2rgtm1Wjl/SzJ, Jackson Laboratory Japan, Inc.), or B6J mice (C57BL/6J, Jackson Laboratory Japan, Inc.) were habituated for 3 days or more under SPF conditions before experimental use. The mice were fed with sterilized solid feed and given sterilized tap water. The major and minor diameters of the transplanted tumors were measured twice a week with an electronic digital caliper (Mitutoyo Corporation), and the estimated tumor volume was calculated using the following formula. Estimated tumor volume (mm^3) = 1/2 × major diameter (mm) × [minor diameter (mm)]^2 All antibody-drug conjugates were diluted with ABS and administered into the tail vein at doses shown in each Example. In addition, ABS (vehicle) or control hIgG-PBD prepared in Reference Example 4 was administered as the control group, in a similar manner. 5 to 6 Mice were used per group in the experiment. Based on publicly known information, LRRC15-positive human osteosarcoma cell line HuO9 (JCRB) was suspended in Matrigel (Corning Incorporated), 5.0 × 10^6 cells were subcutaneously transplanted into the right flank of female SCID mice (Day 0), and random grouping was performed on Day 10. On the day of grouping, a vehicle, the antibody-drug conjugate […]-V1-PBD or […]-V2-PBD prepared in Example 5, or huM25-PBD prepared in Reference Example 6-2 was administered into the tail vein at a dose of 0.3 mg/kg. The abscissa indicates the number of days, and the ordinate indicates estimated tumor volume, and the error bars indicate SEM values.

[4] = 0.4 mg/kg, huM25-MMAE at 0.4 mg/kg or 3.6 mg/kg
[5] = 0.3 mg/kg, huM25-PBD at the same dose

Molecule	inhibitory activity against cell growth (LRRC15-negative HEK293α)	inhibitory activity against cell growth [1]	inhibitory activity against cell growth [2]	antitumor effect (estimated tumor volume) [3, 4]	antitumor effect (estimated tumor volume) [3, 5]	tumor regression ([3]; 0.4 mg/kg)
H02L01-PBD (conjugate) heavy: EVQLVESGGGLVQPGGSLRLSCAASGFTFRDYYMAWVRQAPGKGLEWVSSIGFDESRTYYADSVKGRFTISRDDSKNTLYLQMNSLRAEDTAVYYCARHGVSYYSGDNWFAYWGQGTLVTVSSASTKGPSVFPLAPSSKSTSGGTAALGCLVKDYFPEPVTVSWNSGALTSGVHTFPAVLQSSGLYSLSSVVTVPSSSLGTQTYICNVNHKPSNTKVDKKVEPKSCDKTHTCPPCPAPEAAGGPSVFLFPPKPKDTLMISRTPEVTCVVVDVSHEDPEVKFNWYVDGVEVHNAKTKPREEQYNSTYRVVSVLTVLHQDWLNGKEYKCKVSNKALAAPIEKTISKAKGQPREPQVYTLPPSREEMTKNQVSLTCLVKGFYPSDIAVEWESNGQPENNYKTTPPVLDSDGSFFLYSKLTVDKSRWQQGNVFSCSVMHEALHNHYTQKSLSLSPGK light: DIQMTQSPSSLSASVGDRVTITCKSSQGLLYSGDQKNYLAWYQQKPGKAPKLLIYWASTRQSGVPSRFSGSGSGTDFTLTISSLQPEDFATYYCQQYYDPPYTFGQGTKVEIKRTVAAPSVFIFPPSDEQLKSGTASVVCLLNNFYPREAKVQWKVDNALQSGNSQESVTEQDSKDSTYSLSSTLTLSKADYEKHKVYACEVTHQGLSSPVTKSFNRGEC	growth inhibitory activity equivalent to that of the control hIgG-PBD	inhibited tumor cell proliferation when added at a lower concentration	inhibited tumor cell proliferation when added at a lower concentration	antitumor activity higher than that of the vehicle, the control hIgG-PBD, and huM25-MMAE		
H02L01-V1-PBD (conjugate) heavy: EVQLVESGGGLVQPGGSLRLSCAASGFTFRDYYMAWVRQAPGKGLEWVSSIGFDESRTYYADSVKGRFTISRDDSKNTLYLQMNSLRAEDTAVYYCARHGVSKYSGDNWFAYWGQGTLVTVSSASTKGPSVFPLAPSSKSTSGGTAALGCLVKDYFPEPVTVSWNSGALTSGVHTFPAVLQSSGLYSLSSVVTVPSSSLGTQTYICNVNHKPSNTKVDKKVEPKSCDKTHTCPPCPAPEAAGGPSVFLFPPKPKDTLMISRTPEVTCVVVDVSHEDPEVKFNWYVDGVEVHNAKTKPREEQYNSTYRVVSVLTVLHQDWLNGKEYKCKVSNKALAAPIEKTISKAKGQPREPQVYTLPPSREEMTKNQVSLTCLVKGFYPSDIAVEWESNGQPENNYKTTPPVLDSDGSFFLYSKLTVDKSRWQQGNVFSCSVMHEALHNHYTQKSLSLSPGK light: DIQMTQSPSSLSASVGDRVTITCKSSQGLLYSGDQKNYLAWYQQKPGKAPKLLIYWASTRQSGVPSRFSGSGSGTDFTLTISSLQPEDFATYYCQQYYDPPYTFGQGTKVEIKRTVAAPSVFIFPPSDEQLKSGTASVVCLLNNFYPREAKVQWKVDNALQSGNSQESVTEQDSKDSTYSLSSTLTLSKADYEKHKVYACEVTHQGLSSPVTKSFNRGEC	growth inhibitory activity equivalent to that of the control hIgG-PBD	inhibited tumor cell proliferation when added at a lower concentration	inhibited tumor cell proliferation when added at a lower concentration	antitumor activity higher than that of the vehicle, the control hIgG-PBD, and huM25-MMAE	antitumor activity higher than that of the vehicle and huM25-PBD	lead to tumor regression
H02L01-V2-PBD (conjugate) heavy: EVQLVESGGGLVQPGGSLRLSCAASGFTFRDYYMAWVRQAPGKGLEWVSSIGFDESRTYYADSVKGRFTISRDDSKNTLYLQMNSLRAEDTAVYYCARHGVSRYSGDNWFAYWGQGTLVTVSSASTKGPSVFPLAPSSKSTSGGTAALGCLVKDYFPEPVTVSWNSGALTSGVHTFPAVLQSSGLYSLSSVVTVPSSSLGTQTYICNVNHKPSNTKVDKKVEPKSCDKTHTCPPCPAPEAAGGPSVFLFPPKPKDTLMISRTPEVTCVVVDVSHEDPEVKFNWYVDGVEVHNAKTKPREEQYNSTYRVVSVLTVLHQDWLNGKEYKCKVSNKALAAPIEKTISKAKGQPREPQVYTLPPSREEMTKNQVSLTCLVKGFYPSDIAVEWESNGQPENNYKTTPPVLDSDGSFFLYSKLTVDKSRWQQGNVFSCSVMHEALHNHYTQKSLSLSPGK light: DIQMTQSPSSLSASVGDRVTITCKSSQGLLYSGDQKNYLAWYQQKPGKAPKLLIYWASTRQSGVPSRFSGSGSGTDFTLTISSLQPEDFATYYCQQYYDPPYTFGQGTKVEIKRTVAAPSVFIFPPSDEQLKSGTASVVCLLNNFYPREAKVQWKVDNALQSGNSQESVTEQDSKDSTYSLSSTLTLSKADYEKHKVYACEVTHQGLSSPVTKSFNRGEC	growth inhibitory activity equivalent to that of the control hIgG-PBD	inhibited tumor cell proliferation when added at a lower concentration	inhibited tumor cell proliferation when added at a lower concentration	antitumor activity higher than that of the vehicle, the control hIgG-PBD, and huM25-MMAE	antitumor activity higher than that of the vehicle and huM25-PBD	lead to tumor regression
